Assay [1] deals with T1, rhesus monkey (Rhesus macaque) IL-1β (rhesus monkey (Rhesus macaque), UniProt P48090 117-269).
T1 construct: Bought protein; also called Monkey IL-1β; monkey IL-1β
As to the kind of experiment: SPR, Biacore T200; binder captured by anti-human Fc, cytokine injected; 1:1 Langmuir. The protocol: (§1) In order to analyze binding capacity of PET101 to IL-1α and IL-1β more quantitatively, surface plasmon resonance analysis was performed by using Biacore T200 (GE healthcare). A Series S CM5 Sensor Chip (GE healthcare, BR100530) was used to measure the binding constant, and the anti-human Fc antibodies included in the Human Antibody Capture Kit (GE healthcare, BR100839) were immobilized to the sensor chip according to the manufacturer's manual by using an amine coupling kit (GE healthcare, BR100050). Flow cell 1 of the CM5 sensor, to which anti-human Fc antibodies were immobilized, was used as a blank space, and in Flow cells 2, 3, and 4, 100 nM of PET101 (18 μg/ml), 100 nM of rilonacept (25 μg/ml), and 100 nM of canakinumab (15 μg/ml) were respectively loaded for 1 minute at a flow rate of 10 μl/min. After preparation of all the flow cells, 0.25 nM, 0.5 nM, 1 nM, 2 nM, 4 nM, and 8 nM of human IL-1α (R&D systems, 200-LA), human IL-1β (R&D systems, 201-LB), and mouse IL-1α (R&D systems, 400-ML), mouse IL-1β (R&D systems, 401-ML), and rhesus monkey (Rhesus macaque) IL-1β (R&D systems, 1318-RL) antigens were injected at a flow rate of 30 μl/min, to carry out a binding reaction for 4 minutes, subsequently, only 1×HBS-EP+ buffer (GE healthcare, BR100669) was injected at a flow rate of 30 μl/min to perform a dissociation reaction for 10 minutes. Affinity was calculated by performing normalization and subtraction in each acquired sensorgram comparing with the blank cell. The BIAevaluation software (GE healthcare) was used for affinity calculation, and the association rate constant and dissociation rate constant were calculated through the 1:1 Langmuir model analysis. An equilibrium dissociation constant (KD) is a value obtained by dividing the dissociation rate constant (Kd) by the association rate constant (Kₐ).
On the technique in general: Surface plasmon resonance follows binding to a sensor surface in real time, without labels.

For assay [2], the target named is T2, human IL-1β (human, UniProt P01584 117-269).
T2 construct: Bought protein; also called hIL-1β
The assay is described as above. The protocol: as §1

The target of assay [3] is T2, human IL-1β. As to the kind of experiment: ELISA, human IL-1β coated at 30 ng/well, detection with anti-human IgG Fc-HRP, OD 450 nm. The protocol: An analysis of binding of three types of IL-1 specific Fc fusion proteins (rilonacept, IL1T, PET101) to human IL-1β was performed by using an ELISA method. For comparison of binding capacity, human IL-1β antibody canakinumab was used as a control. […] Next day, the plate was washed with Phosphate Buffered Saline with Tween-20 (PBST; TEKNOVA, P1192). All washing procedures in this analysis were performed by using an AquaMax 2000 plate washer (Molecular Devices, 0310-5363). IL1T, PET101, rilonacept, and canakinumab were diluted in PBST containing 1% (w/v) skim milk to an appropriate concentration and treated in each well, binding was induced at room temperature for 1 hour, and plate was washed 3 times. Thereafter, peroxidase-bound anti-human IgG Fc goat antibodies (Invitrogen 31413) were diluted (1:10,000) in PBST containing 1% (w/v) skim milk to induce binding, and washed 3 times with PBST, and then color reaction was induced by treating 3,3′,5,5′-tetramethylbenzidine (TMB) substrate solution (Thermo Fisher Scientific, 34028) in the dark at room temperature. Thereafter, the reaction was terminated by treatment with 1N of sulfuric acid (DUKSAN, 255), and absorbance was measured at 450 nm by using a SpctraMax i3 multimode plate reader (Molecular Devices, 10192-220).
(In general: An ELISA detects its analyte on a solid surface through an enzyme-linked reagent.)

B1: canakinumab (antibody)
chain 1: not shown
chain 2: EIVLTQSPDFQSVTPKEKVTITCRASQSIGSSLHWYQQKPDQSPKLLIKYASQSFSGVPSRFSGSGSGTDFTLTINSLEAEDAAAYYCHQSSSLPFTFGPGTKVDIKRTVAAPSVFIFPPSDEQLKSGTASVVCLLNNFYPREAKVQWKVDNALQSGNSQESVTEQDSKDSTYSLSSTLTLSKADYEKHKVYACEVTHQGLSSPVTKSFNRGEC
As for B1, in assay [1], the Kd (in general, the constant that tells how readily two partners part at equilibrium) was found to be 2850 nM; the koff (as a rule, the first-order rate constant of dissociation) is 0.0181 s⁻¹; the kon (as a rule, a measure of how fast the partners come together) was determined as 6350 M⁻¹ s⁻¹. Moreover, in the assay with human IL-1β [2], the affinity, expressed as Kd, was 0.0684 nM; the koff came out at 5.21e-05 s⁻¹; the kon worked out at 762000 M⁻¹ s⁻¹. In the assay with human IL-1β [3], the EC50 (as a rule, the concentration that produces a half-maximal response) stood at 0.0882 nM.
